Measured values from paper PMC10666288, “Unveiling the Catalytic Mechanism of a Processive Metalloaminopeptidase” (Biochemistry, 2023).

B1: PepA from P. aeruginosa strain PA14 (PaPepA), uncleaved His6-tagged protein used for crystallography (enzyme, Pseudomonas aeruginosa strain PA14)
chain: MEFLVKSVRPETLKTATLVLAVGEGRKLGASAKAVDDATGGAISAVLKRGDLAGKVGQTLLLQSLPNLKAERVLLVGAGKERELGDRQYRKLASAVLSTLKGLAGADAALALGDLAVKGRGAHAKARLLVETLADGLYVFDRYKSQKAEPLKLKKLTLLADKADSAAVEQGSKEAQAIANGMALTRDLGNLPPNVCHPTFLGEQAKGLAKEFKSLKVEVLDEKKLRELGMGSFLAVAQGSDQPPRLIILQYNGAKKDQAPHVLVGKGITFDTGGISLKPGLGMDEMKFDMCGAASVFGTFRAVLELQLPINLVGLLACAENMPSGGATRPGDIVTTMSGQTVEILNTDAEGRLVLCDALTYAERFKPQSVIDIATLTGACIVALGSNTSGLMGNNEALVRQLLKAGEFADDRAWQLPLFDEYQEQLDSPFADIANIGGPKAGTITAGCFLSRFAKKYHWAHLDIAGTAWISGGKDKGATGRPVPLLTQYLLERAK
notes: Leucine aminopeptidase PepA, Pseudomonas aeruginosa strain PA14, PA14_14470, UniProt Q02RY8; also called leucine aminopeptidase from Pseudomonas aeruginosa; uncleaved PaPepA; source: E. coli BL21(DE3), purified (HisTrap FF nickel column, dialysed; not TEV-cleaved); not shown: His6 (followed by a linker and a TEV protease cleavage site), N-terminal, kept
B2: PepA from P. aeruginosa strain PA14 (PaPepA), protein used for dynamic light scattering (enzyme, Pseudomonas aeruginosa strain PA14)
chain: B1 chain
notes: Leucine aminopeptidase PepA, Pseudomonas aeruginosa strain PA14, PA14_14470, UniProt Q02RY8; probably the cleaved one; also called leucine aminopeptidase from Pseudomonas aeruginosa; source: E. coli BL21(DE3), purified (HisTrap FF nickel column)

Experiments:
[1] = molecular target: the molecule itself; experiment: crystal structure; uncleaved PaPepA, sitting drop, 20 °C, PEG 3350 and ammonium nitrate; three crystal forms: apo, with MnCl2, with bestatin and MnCl2
[2] = molecular target: the molecule itself; experiment: dynamic light scattering; PaPepA in solution; conditions not shown (Figure S14)

Row | Protein | stoichiometry N [1] | stoichiometry N [2]
1 | B1 | 6 | –
2 | B2 | – | 6
